According to the nanobody polyreactivity screen of Harvey et al. (2022):

Test: yeast display, Sf9 membrane polyspecificity reagent, FACS + sequencing; frameworks hold sequencing errors
Procedure, shortened: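 A nanobody's polyreactivity label depends on the gate it was sorted from. Yeast display cells were stained with 10% biotinylated, detergent-solubilized Sf9 membrane reagent for 1 hour at 4 °C, enriched on streptavidin microbeads and sorted by FACS. The low and high (top ~1%) gates were set on anti-HA fluorescence for expression and streptavidin fluorescence for reagent binding.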

| Sequence | polyreactivity (PSR sort gate) |
| --- | --- |
| QVQLVESGGGLVQAGGSLRLSCAASGRTFTYYSMGWYRQAPGKESELVARISIRGTNTYYADSLKGRFTISRDNAKNTVYLQMTSLKPEDTAVYYCAKYYYTSIVGYDSWGQGTQVTVSS | low polyreactivity |
| QVQLVASRGGLVQAGGILRLSSAASGSTFPSYEMGWYRQARGKERELVAAINSGRGSNYADSVKGRFTISRDNAKNTVYLQMNCLIPDDTAVYYCGISRYDYTNTEGGYWGQGTQVTVSS | low polyreactivity |
| QVQLVESGGGLVQAGGSLRLSCAASGRTFALNVMGWYRQAPGKERELVAAISRSGGSTYYADSVTGRFTISRDNAKNTVYFQMNSLKPEDTAVYYGAAATHYQSYNRRDYWGEGTQVTVSS | high polyreactivity |
| QVQLVESGGGLVQAGGSLRLSCAASGSTFGYYAMGWYRQAPGKESELVATINWSGGSTYYADSVKGRFTISRDNAKNTVYLQMNSLKPEDTAVYYCAADPYLQYYWAYDYWGQGTQVTVSS | low polyreactivity |
| QVQLVESGGGLVQAGGSLRLSCAASGRTFRWYAMGWYRQAPGKERELVASITWSGGSTYYADSVKGRFTISRDNAKNSVYLQMNSLKPEDTAVYYCNRVLGVSLYEGNYWGQGTQVTVSS | high polyreactivity |
| QVQLVESGGGLVQAGGSHRLSCAASGSIFYFNAMGWYRQAPGKEREFVAGITTSGGSTYYADSVKGRFTISRDNAKNTVYLQMNSLKPEDTAVYYCNIVWVYAVTPSSWYKYGSWGQGTQVTVSS | low polyreactivity |
| QVQLVESGGGLVQAGGSLRLSCAASGRTFRYNAMGWYRQAPGKERELVAAINWNGGSTYYADSVKGRFTISRDNAKNTVYLQMNSLKPEDTAVYYCNADFYHRYDWGQGTQVTVSS | high polyreactivity |
| QVQLVESGGGLVQDGGSLRLSCAASGRIFGYYAMGGYRQAPGKERELVASINGGGSTNYADSVKGRFTISRDNAKTTVYLQMNSLKPEDTAVYDCAAAQWAYWLLYNYWGHGTQVTVSS | low polyreactivity |
| QVQLVESGGGLVQAGGSLRLICAASGSIFYEYAMGWYRQAPGKEREFVASISWSGGITSYADSVKGRFTISRDNAKNTVYLQMNSLKPEDTAVYYCAADFSWYLYDYDYWGQGTQVTVSS | low polyreactivity |
| QVQLVESGGGLVQAGGSLRLSCAASGSTFSTNAMGWYRQAPGKERELVAAISRSGGRTYYADSVKGRFTISRDNAKNTVYLQMNSLKPEDTAVYYCNAVRRFASPSPHYYWGQGTQVTVSS | high polyreactivity |
| QVQLVESGGGLVQAGGSLRLSCAASGIIFYYYAMGWYRQAPGKERELVAGISYSGGSTYADSVKGRFTISRDNAKNTVYLQMNSLKPEDTAVYYCASDYDYGGHWYDYWGQGTQVTVSS | low polyreactivity |
| QVQLVESGGGLVQAGGSLRLSCAASGSIFPQYAMGWYRQAPGKERELVAAISWSGGRTYYADSVKGRFTISRDNAKNTVYIQMNSLKPEDTAVYYCNRLYRRWYGREDDYWGQGTQVTVSS | high polyreactivity |
| QVQLVESGGGLVQAGGSLRLSCAASGSTVRRYAMGWYRQAPGKERELVATISSGGRTNYADSVKGRFTISRDNAKNTVYLEMNSLKPEDTGVYYCAARPYFYERSAGYYWGQGTQVTVSS | high polyreactivity |
| QDKLVESAGGLVQAGGSLRLSCADSGSIFPFNAMALNRQATGKVREMVASITSGGTTYYADSLKGRFTISRDNAKNTVYLQMNSLKPEDTAVYYFAGDWVWRVLNSYGVRYDYWGQGTQVTVSS | low polyreactivity |
| QVQLVESGGGLVQAGGSLRLSCAASGSIFTFNAMGWYRQAPGKEREFVAAITRSGGRTYYADSVKGRFTISRDNAKNTVYLQMNSLKPEDTAVYYCAARPRGKYDYWGQGTQVTVSS | high polyreactivity |
| QVQLVESGGGLVQAGGILRLSCAASGRTFFSNAMGWYRQAPGKEREFVAAISNGDNTYYADSVKGRFTISSDNAKNTVYLQMNSLKPDDTAVYYCAADQYWSWIYYPVVEYDYWGLGTQVTVSS | low polyreactivity |
